For this data set, the target named is Factor X, P00742.
Factor X, P00742, sequence (P00742 whole entry, looked up): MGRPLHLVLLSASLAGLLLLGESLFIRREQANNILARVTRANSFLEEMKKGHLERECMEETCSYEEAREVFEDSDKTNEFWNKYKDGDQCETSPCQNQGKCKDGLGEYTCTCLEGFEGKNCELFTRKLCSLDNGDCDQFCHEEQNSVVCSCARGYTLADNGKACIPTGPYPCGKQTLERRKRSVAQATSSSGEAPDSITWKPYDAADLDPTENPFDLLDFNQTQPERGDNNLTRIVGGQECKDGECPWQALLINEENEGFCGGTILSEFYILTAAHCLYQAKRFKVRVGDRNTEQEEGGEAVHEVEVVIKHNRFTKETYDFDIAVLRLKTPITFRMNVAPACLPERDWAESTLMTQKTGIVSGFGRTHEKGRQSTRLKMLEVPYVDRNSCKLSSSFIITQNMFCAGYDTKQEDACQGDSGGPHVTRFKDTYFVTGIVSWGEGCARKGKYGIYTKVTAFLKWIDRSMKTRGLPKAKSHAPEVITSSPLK

B1: desialylated wild-type Factor VII (dWT VIIa) (protein)
chain 1: ANAFLEELRPGSLERECKEEQCSFEEAREIFKDAERTKLFWISYSDGDQCASSPCQNGGSCKDQLQSYICFCLPAFEGRNCETHKDDQLICVNENGGCEQYCSDHTGTKRSCRCHEGYSLLADGVSCTPTVEYPCGKIPILEKRNASKPQGR
chain 2: IVGGKVCPKGECPWQVLLLVNGAQLCGGTLINTIWVVSAAHCFDKIKNWRNLIAVLGEHDLSEHDGDEQSRRVAQVIIPSTYVPGTTNHDIALLRLHQPVVLTDHVVPLCLPERTFSERTLAFVRFSLVSGWGQLLDRGATALELMVLNVPRLMTQDCLQQSRKVGDSPNITEYMFCAGYSDGSKDSCKGDSGGPHATHYRGTWYLTGIVSWGQGCATVGHFGVYTRVSQYIEWLQKLMRSEPRPGVLLRAPFP
On to B1, for which the “Michaelis Menten kinetics of Factor X activation, Factor X titrated in the presence of sTF-Factor VII complexes (0.5 nM Factor VII, 125 nM sTF)” value is reported as “dWT VIIa (dF7) can activate Factor X more effectively (approximately 2-fold) than wild-type Factor VII (F7)”.
